The target in assay [1] is biotinylated UNC-6ΔC (C. elegans) (UniProt P34710). Put plainly: SPR. (In general: SPR reads the build-up and loss of mass on a sensor chip optically.)
Another assay has as its target UNC-6ΔC (C. elegans) (UniProt P34710). Kind of assay: SEC. On the technique in general: SEC sorts molecules by how far they enter the pores of the column.
Assay [2] deals with UNC-5 N188K ectodomain on yeast (C. elegans). Put plainly: flow cytometry on cells. (In general: Flow cytometry measures light scatter and fluorescence of single cells or particles in a stream.)
Assay [3] has as its target UNC-5 N18K ectodomain on yeast (C. elegans). Put plainly: flow cytometry on cells.
For assay [4], the target named is UNC-5 ECD displayed on yeast (C. elegans). Put plainly: flow cytometry on cells.
UNC-5 ECD displayed on yeast (C. elegans), sequence (Q26261 whole entry, the tested form may be a part): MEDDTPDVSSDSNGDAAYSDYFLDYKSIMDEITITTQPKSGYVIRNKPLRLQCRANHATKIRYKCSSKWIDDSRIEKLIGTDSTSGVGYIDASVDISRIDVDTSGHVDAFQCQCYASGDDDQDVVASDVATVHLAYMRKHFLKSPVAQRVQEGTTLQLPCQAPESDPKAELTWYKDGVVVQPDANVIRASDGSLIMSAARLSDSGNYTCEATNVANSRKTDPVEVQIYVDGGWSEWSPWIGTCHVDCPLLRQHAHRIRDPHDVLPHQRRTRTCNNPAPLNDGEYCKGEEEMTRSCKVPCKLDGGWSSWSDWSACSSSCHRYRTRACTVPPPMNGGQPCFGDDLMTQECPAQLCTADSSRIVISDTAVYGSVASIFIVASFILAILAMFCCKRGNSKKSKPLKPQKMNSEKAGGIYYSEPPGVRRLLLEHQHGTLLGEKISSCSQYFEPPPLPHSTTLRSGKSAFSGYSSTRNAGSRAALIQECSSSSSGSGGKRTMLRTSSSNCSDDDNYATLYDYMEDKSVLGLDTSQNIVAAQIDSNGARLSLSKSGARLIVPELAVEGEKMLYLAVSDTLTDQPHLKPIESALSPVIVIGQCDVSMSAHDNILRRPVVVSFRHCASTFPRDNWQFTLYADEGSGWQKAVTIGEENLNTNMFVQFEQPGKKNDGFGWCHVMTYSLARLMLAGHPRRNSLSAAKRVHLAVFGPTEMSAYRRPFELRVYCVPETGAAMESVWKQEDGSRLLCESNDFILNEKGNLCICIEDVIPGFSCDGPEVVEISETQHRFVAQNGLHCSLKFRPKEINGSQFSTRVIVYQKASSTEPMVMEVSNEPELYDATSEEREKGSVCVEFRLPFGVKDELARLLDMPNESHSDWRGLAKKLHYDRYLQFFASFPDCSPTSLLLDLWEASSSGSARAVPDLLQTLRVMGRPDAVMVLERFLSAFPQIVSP

What is called stoichiometry N is the number of molecules, sites or subunits per partner or assembly. Broadly, the Kd is the constant that tells how readily two partners part at equilibrium. The low end stands for a tighter complex, the high end for a looser complex.

biotinylated UNC-6ΔC (C. elegans), sequence (P34710 22-461, stated change not applied): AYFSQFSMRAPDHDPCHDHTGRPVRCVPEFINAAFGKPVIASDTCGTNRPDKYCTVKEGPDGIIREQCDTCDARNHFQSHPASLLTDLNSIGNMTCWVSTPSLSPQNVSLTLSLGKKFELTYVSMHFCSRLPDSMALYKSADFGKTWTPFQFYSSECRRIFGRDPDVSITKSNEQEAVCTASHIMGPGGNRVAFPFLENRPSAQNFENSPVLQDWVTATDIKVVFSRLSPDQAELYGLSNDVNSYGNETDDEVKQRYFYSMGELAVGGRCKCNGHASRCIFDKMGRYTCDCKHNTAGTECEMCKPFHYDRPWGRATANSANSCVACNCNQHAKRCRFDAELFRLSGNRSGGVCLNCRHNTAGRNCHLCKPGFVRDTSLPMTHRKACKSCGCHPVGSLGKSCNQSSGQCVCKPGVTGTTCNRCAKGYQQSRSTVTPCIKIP
biotinylated UNC-6ΔC, sequence (P34710 22-461, stated change not applied): as above
UNC-6ΔC (C. elegans), sequence (P34710 22-461, stated change not applied): as above

With UNC-5 ECD R17E R70E (receptor), in assay [1], the KD with heparin fell in the range of 50000 to 100000 nM and the fold loss of affinity against WT UNC-5 stood at 2 fold.
Turning to UNC-5 ECD (receptor), in the assay with UNC-6ΔC (C. elegans), the stoichiometry N was 1. In assay [1], this substance gave a KD with heparin of 1200 nM and a dissociation constant (Kd) of 46000 nM.
Regarding “biotinylated UNC-6ΔC (from UniProt P34710 22-461) (ligand)”, the Kd came to 16.4 nM in assay [2] and 8.2 nM in assay [3]. This substance gave a KD with heparin in assay [4] of 35 nM.

The values above are taken from paper PMC10871540.
